Measurements reported in PMC5982450.

Experiments:
[1] = molecular target: C5a receptor (C5aR) (human (endogenous in neutrophils)) (UniProt P21730)
[2] = molecular target: formylated peptide receptors (FPR) (human (endogenous in neutrophils)) (UniProt P21462)
[3] = molecular target: formylated peptide receptors (FPR) (human (endogenous in neutrophils)) (UniProt P21462); remark: listed apart in the source

UniProt P21462, sequence (P21462 whole entry): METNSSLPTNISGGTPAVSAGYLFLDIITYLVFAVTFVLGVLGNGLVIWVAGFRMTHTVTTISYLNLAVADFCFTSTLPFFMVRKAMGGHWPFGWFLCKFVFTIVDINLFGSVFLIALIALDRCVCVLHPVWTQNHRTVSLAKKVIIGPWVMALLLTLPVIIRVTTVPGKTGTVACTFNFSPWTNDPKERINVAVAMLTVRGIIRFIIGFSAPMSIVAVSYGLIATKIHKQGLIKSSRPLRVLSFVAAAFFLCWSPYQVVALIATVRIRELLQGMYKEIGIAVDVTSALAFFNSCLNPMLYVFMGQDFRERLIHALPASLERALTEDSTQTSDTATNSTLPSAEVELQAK
UniProt P21730, sequence (P21730 whole entry): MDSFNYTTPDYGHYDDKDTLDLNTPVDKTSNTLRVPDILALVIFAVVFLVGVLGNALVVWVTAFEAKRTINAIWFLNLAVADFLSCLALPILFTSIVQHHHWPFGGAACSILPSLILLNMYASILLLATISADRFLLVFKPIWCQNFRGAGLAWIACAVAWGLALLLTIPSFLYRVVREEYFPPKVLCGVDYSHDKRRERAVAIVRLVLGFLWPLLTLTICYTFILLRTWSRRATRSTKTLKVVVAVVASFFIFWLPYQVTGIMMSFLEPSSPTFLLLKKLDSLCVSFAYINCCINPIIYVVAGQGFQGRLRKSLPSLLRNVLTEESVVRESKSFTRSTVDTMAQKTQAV

Row | Substance | neutrophil chemotaxis towards human fracture hematoma serum in a 3D fibrin gel, mean vector speed without vs with CHIPSΔ1F (10 μg/ml); value is the speed with CHIPSΔ1F [1] [μm/min] | neutrophil chemotaxis towards human fracture hematoma serum in a 3D fibrin gel, mean vector speed without vs with CHIPS (10 μg/ml); value is the speed with CHIPS [2] [μm/min] | neutrophil chemotaxis towards human fracture hematoma serum in a 3D fibrin gel, mean vector speed without vs with CHIPS (10 μg/ml); value is the speed with CHIPS [1] [μm/min] | neutrophil chemotaxis towards fMLF (10^-7 M) in a 3D fibrin gel, mean vector speed without vs with CHIPS (10 μg/ml); value is the speed with CHIPS [3] [μm/min]
1 | CHIPSΔ1F, a CHIPS mutant lacking the first N-terminal amino acid (domain or fragment) | 4 | – | – | –
2 | chemotaxis inhibitory protein of Staphylococcus aureus (CHIPS) (from UniProt A6QIG7 29-149) (natural protein) | – | 3.3 | 3.3 | 0.4
